Results on 8 molecules are retold here after US20250313627A1 (FUSE BIOTHERAPEUTICS, published 2025).

Read-outs that look alike come from different tables or passages of the source.

The target in experiment [1] is T1, human ROR1 (Receptor Tyrosine Kinase-Like Orphan Receptor 1) on the cell surface (human, UniProt Q01973 30-937).
T1 construct: whole, on cells; engineered into B16-F10 (high density) and LS174T (low density) cells; also called B16-F10-ROR1-H; LS174T-ROR1-L
In words: flow cytometry, B16-F10 cells expressing human ROR1 (high density). As to the method:
(§1) As shown in the tables below, mouse B16-F10 melanoma (Tables 9A-9F) or LS174T human colorectal adenocarcinoma (Tables 9G-9H) cells genetically engineered to express human ROR1 at high and low densities, respectively, were stained for flow cytometric analysis with 100 nM of humanized variants of the ROR1 specific VHHs, 5A1 or 2A11 in either a VHH-Fc format or the Ac13 format shown in FIG. 1. Cells were analyzed on a flow cytometer after the primary test article was fluorescently tagged with a goat anti human IgG-Fc specific PE secondary antibody. The positive control used was PE conjugated anti-human ROR1 clone 2A2. Negative controls included a PE labeled mouse IgG Ab, the secondary antibody only, the combination of a Hen Egg Lysozyme (HEL) specific antibody plus goat anti human IgG-Fc specific PE and Fluorescence Minus One (FMO). Other controls included the non-humanized version of 5A1-Fc (FUSE179), 2A11-Fc (FUSE112) and 5A1-Ac13 (FUSE488). Humanized variants were generated using computational design (FUSE489, FUSE497-498, FUSE563, FUSE569-570, and BI-HU9-VHH11-33), a yeast display library in which mutations were inserted into the Vernier zone residues of human framework indicated in GenBank accession number M99660 (FUSE524-525, FUSE589, FUSE597-598, FUSE537, FUSE661-662, BI-HU9-HK and BI-HU9-HK-1), and a second yeast display library in which mutations were inserted into the Vernier zone residues of human framework indicated in GenBank accession number AWH66715 and amino acid position 103 within CDR3 (FUSE559, FUSE590-596, BI-HU9-VH9-1, FUSE654-655 and FUSE661-662. Affinity matured variants of FUSE559 were also generated using computational design (F22158101-21; Table 9H).

Experiment [2] concerns the target T1, human ROR1 (Receptor Tyrosine …). The description is as above. As to the method:
as §1
The source holds these as a separate data set.

The target is the same in experiment [3]. The experiment in a line: flow cytometry on B16-F10 cells engineered to express human ROR1, secondary antibody to the IgG1 Fc. The method, then: As shown in FIG. 15 the apparent binding affinity (EC50-binding) of the ROR1 specific VHH-Fc incorporating either the non humanized VHH clone 5A1 (FUSE179; black circle), the humanized clone 5A1-FA9-HK1 (FUSE559; black square) or the humanized clone 5A1-HK1 (FUSE524; black triangle) was calculated. Shown is a non-linear x-y plot of binding to B16-F10 cell engineered to express human ROR1 relative to the concentration of test article used for staining. A Hen Egg Lysozyme (HEL)-specific antibody was used as the negative isotype control. Binding was measured via flow cytometry using a fluorescently labeled secondary antibody specific for the Fc domain of IgG1. A summary table of EC50s and maximum MFI is shown beneath under the graph.
On the technique in general: Flow cytometry measures light scatter and fluorescence of single cells or particles in a stream.

Experiment [4] shares this target. In words: flow cytometry, B16-F10 cells expressing human ROR1 (high density). The method, then: as §1
The source holds these as a separate data set.

T1 sequence (Q01973 30-937): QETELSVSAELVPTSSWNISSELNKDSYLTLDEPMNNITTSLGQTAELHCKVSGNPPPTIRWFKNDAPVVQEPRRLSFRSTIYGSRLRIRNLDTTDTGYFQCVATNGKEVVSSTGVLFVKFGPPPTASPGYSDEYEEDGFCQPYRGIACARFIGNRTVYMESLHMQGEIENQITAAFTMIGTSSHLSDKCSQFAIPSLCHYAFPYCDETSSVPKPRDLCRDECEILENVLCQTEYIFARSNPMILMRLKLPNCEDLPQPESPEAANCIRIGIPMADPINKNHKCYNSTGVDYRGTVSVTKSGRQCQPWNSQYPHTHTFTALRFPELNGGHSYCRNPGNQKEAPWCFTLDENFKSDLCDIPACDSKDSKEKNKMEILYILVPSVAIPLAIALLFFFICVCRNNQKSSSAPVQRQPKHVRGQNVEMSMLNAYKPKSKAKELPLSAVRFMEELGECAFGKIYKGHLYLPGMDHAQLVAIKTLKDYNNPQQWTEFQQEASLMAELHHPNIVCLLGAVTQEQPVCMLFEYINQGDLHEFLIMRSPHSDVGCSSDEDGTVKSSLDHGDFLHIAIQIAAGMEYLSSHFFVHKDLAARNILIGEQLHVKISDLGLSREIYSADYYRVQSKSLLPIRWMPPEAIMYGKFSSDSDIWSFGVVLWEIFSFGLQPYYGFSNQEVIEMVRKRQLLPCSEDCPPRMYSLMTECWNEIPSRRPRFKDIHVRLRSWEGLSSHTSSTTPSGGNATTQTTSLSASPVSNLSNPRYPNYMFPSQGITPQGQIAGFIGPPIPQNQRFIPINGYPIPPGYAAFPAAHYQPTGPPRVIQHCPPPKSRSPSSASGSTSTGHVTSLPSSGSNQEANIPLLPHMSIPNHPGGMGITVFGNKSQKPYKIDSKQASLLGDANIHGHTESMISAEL

B1: FUSE-597 (h5A1-HK2 Fc) (Fc fusion)
chain: EVQLLESGGGLVQPGGSLRLSCAASGYTNRLKCMGWFRQAPGKERELASISTGTGNTYYADSVKGRFTISRDGSKNTLYLQMNSLRAEDTAVYYCAADVRPDGTTCHYNSRGQGTLVTVSS
notes: VHH-Fc format; not shown: Fc of the VHH-Fc format
For the molecule B1, the MFI in experiment [1] stood at 10100.

B2: FUSE-524 (h5A1-HK1_Fc) (Fc fusion)
chain: EVQLLESGGGLVQPGGSLRLSCAASGYTNRLKCMGWFRQAPGKERELASISTGTGNTYYADSVKGRFTISRDNSKNTLYLQMNSLKAEDTAVYYCAADVRPDGTTCHYNSRGQGTLVTVSS
notes: VHH-Fc format; also called humanized clone 5A1-HK1; 5A1-H1; not shown: Fc of the VHH-Fc format
Consider B2, for which the MFI in experiment [2] came to 6470. In experiment [3], the concentration giving a half-maximal response (EC50) (as a rule, the concentration giving half of the maximal effect) was determined as 2.74 nM and the “Max MFI” value turned out to be 7080 MFI.

B3: FUSE-569 (h5A1-FA17 Fc) (Fc fusion)
chain: QVQLVESGGGLVQPGGSLRLSCSASGYTNRLKCMGWFRQAPGKERELASISTGTGNTYYADSVKGRFTISRDNSKNTLYLQMNSLRADDTAVYYCAADVRPDGTTCHYNSWGQGTQVTVSS
notes: as for B1
Regarding B3, in experiment [4], the MFI came out at 590.

B4: FUSE-489 (h5A1-Ac13) (bispecific antibody, human IgG1, lambda, L234A L235A)
heavy: EVQLVESGGGLVQPGGSLRLSCAASGFTFSTYAMNWVRQAPGKGLEWVARIRSKYNNYATYYADSVKDRFTISRDDSKNTLYLQMNSLRAEDTAVYYCARHGNFGNSYVSWFAYWGQGTMVTVSSASTKGPSVFPLAPSSKSTSGGTAALGCLVKDYFPEPVTVSWNSGALTSGVHTFPAVLQSSGLYSLSSVVTVPSSSLGTQTYICNVNHKPSNTKVDKKVEPKSCDKTHTCPPCPAPEAAGGPSVFLFPPKPKDTLMISRTPEVTCVVVDVSHEDPEVKFNWYVDGVEVHNAKTKPREEQYNSTYRVVSVLTVLHQDWLNGKEYKCKVSNKALPAPIEKTISKAKGQPREPQVYTLPPSREEMTKNQVSLSCAVKGFYPSDIAVEWESNGQPENNYKTTPPVLDSDGSFFLVSKLTVDKSRWQQGNVFSCSVMHEALHNRFTQKSLSLSPGK
chain: QVQLQESGGGLVQPGGSLRLSCTASGYTNRLKCMGWVRQAPGKEREEVATISTGTGNTYYADSVKGRFTISRDNSKNTLYLQMNSLRAEDTAMYYCAADVRPDGTTCHYNSGGQGTQVTVSSEPKSSDKTHTCPPCPAPEAAGGPSVFLFPPKPKDTLMISRTPEVTCVVVDVSHEDPEVKFNWYVDGVEVHNAKTKPREEQYNSTYRVVSVLTVLHQDWLNGKEYKCKVSNKALPAPIEKTISKAKGQPREPQVYTLPPSREEMTKNQVSLWCLVKGFYPSDIAVEWESNGQPENNYKTTPPVLDSDGSFFLYSKLTVDKSRWQQGNVFSCSVMHEALHNHYTQKSLSLSPGK
light: QAVVTQEPSLTVSPGGTVTLTCRSSTGAVTTSNYANWVQQKPGQAPRGLIGGTNKRAPGTPARFSGSLLGGKAALTLSGVQPEDEAEYYCALWYSNLWVFGGGTKLTVLGQPKAAPSVTLFPPSSEELQANKATLVCLISDFYPGAVTVAWKADSSPVKAGVETTTPSKQSNNKYAASSYLSLTPEQWKSHRSYSCQVTHEGSTVEKTVAPTECSGGGGSGGGGSGGGGSGGGGSQVQLQESGGGLVQPGGSLRLSCTASGYTNRLKCMGWVRQAPGKEREEVATISTGTGNTYYADSVKGRFTISRDNSKNTLYLQMNSLRAEDTAMYYCAADVRPDGTTCHYNSGGQGTQVTVSS
notes: Format Ac13
In the case of B4, in experiment [2], the MFI turned out to be 1060.

B5: FUSE-497 (h5A1-Ac13) (bispecific antibody, human IgG1, lambda, L234A L235A)
heavy: EVQLVESGGGLVQPGGSLRLSCAASGFTFSTYAMNWVRQAPGKGLEWVARIRSKYNNYATYYADSVKDRFTISRDDSKNTLYLQMNSLRAEDTAVYYCARHGNFGNSYVSWFAYWGQGTMVTVSSASTKGPSVFPLAPSSKSTSGGTAALGCLVKDYFPEPVTVSWNSGALTSGVHTFPAVLQSSGLYSLSSVVTVPSSSLGTQTYICNVNHKPSNTKVDKKVEPKSCDKTHTCPPCPAPEAAGGPSVFLFPPKPKDTLMISRTPEVTCVVVDVSHEDPEVKFNWYVDGVEVHNAKTKPREEQYNSTYRVVSVLTVLHQDWLNGKEYKCKVSNKALPAPIEKTISKAKGQPREPQVYTLPPSREEMTKNQVSLSCAVKGFYPSDIAVEWESNGQPENNYKTTPPVLDSDGSFFLVSKLTVDKSRWQQGNVFSCSVMHEALHNRFTQKSLSLSPGK
chain: EVQLLESGGGLVPRGGSLRLSCTASGYTNRLKCMGWFRQAPGKEREEIATISTGTGNTYYADSVKGRFTISRDNSRNTLYLQMKTLRAEDTAVYYCAADVRPDGTTCHYNSWGQGTQVTVSSEPKSSDKTHTCPPCPAPEAAGGPSVFLFPPKPKDTLMISRTPEVTCVVVDVSHEDPEVKFNWYVDGVEVHNAKTKPREEQYNSTYRVVSVLTVLHQDWLNGKEYKCKVSNKALPAPIEKTISKAKGQPREPQVYTLPPSREEMTKNQVSLWCLVKGFYPSDIAVEWESNGQPENNYKTTPPVLDSDGSFFLYSKLTVDKSRWQQGNVFSCSVMHEALHNHYTQKSLSLSPGK
light: QAVVTQEPSLTVSPGGTVTLTCRSSTGAVTTSNYANWVQQKPGQAPRGLIGGTNKRAPGTPARFSGSLLGGKAALTLSGVQPEDEAEYYCALWYSNLWVFGGGTKLTVLGQPKAAPSVTLFPPSSEELQANKATLVCLISDFYPGAVTVAWKADSSPVKAGVETTTPSKQSNNKYAASSYLSLTPEQWKSHRSYSCQVTHEGSTVEKTVAPTECSGGGGSGGGGSGGGGSGGGGSEVQLLESGGGLVPRGGSLRLSCTASGYTNRLKCMGWFRQAPGKEREEIATISTGTGNTYYADSVKGRFTISRDNSRNTLYLQMKTLRAEDTAVYYCAADVRPDGTTCHYNSWGQGTQVTVSS
notes: Format Ac13
For B5, the MFI in experiment [2] came out at 811.

B6: FUSE-498 (h5A1-Ac13) (bispecific antibody, human IgG1, lambda, L234A L235A)
heavy: EVQLVESGGGLVQPGGSLRLSCAASGFTFSTYAMNWVRQAPGKGLEWVARIRSKYNNYATYYADSVKDRFTISRDDSKNTLYLQMNSLRAEDTAVYYCARHGNFGNSYVSWFAYWGQGTMVTVSSASTKGPSVFPLAPSSKSTSGGTAALGCLVKDYFPEPVTVSWNSGALTSGVHTFPAVLQSSGLYSLSSVVTVPSSSLGTQTYICNVNHKPSNTKVDKKVEPKSCDKTHTCPPCPAPEAAGGPSVFLFPPKPKDTLMISRTPEVTCVVVDVSHEDPEVKFNWYVDGVEVHNAKTKPREEQYNSTYRVVSVLTVLHQDWLNGKEYKCKVSNKALPAPIEKTISKAKGQPREPQVYTLPPSREEMTKNQVSLSCAVKGFYPSDIAVEWESNGQPENNYKTTPPVLDSDGSFFLVSKLTVDKSRWQQGNVFSCSVMHEALHNRFTQKSLSLSPGK
chain: EVQLVESGGGLVQPGGSLRLSCTASGYTNRLKCMGWFRQAPGKEREEIATISTGTGNTYYADSVKGRFTFSRDNSKNTLYLQMNSLRAEDTAVYYCAADVRPDGTTCHYNSGGQGTQVTVSSEPKSSDKTHTCPPCPAPEAAGGPSVFLFPPKPKDTLMISRTPEVTCVVVDVSHEDPEVKFNWYVDGVEVHNAKTKPREEQYNSTYRVVSVLTVLHQDWLNGKEYKCKVSNKALPAPIEKTISKAKGQPREPQVYTLPPSREEMTKNQVSLWCLVKGFYPSDIAVEWESNGQPENNYKTTPPVLDSDGSFFLYSKLTVDKSRWQQGNVFSCSVMHEALHNHYTQKSLSLSPGK
light: QAVVTQEPSLTVSPGGTVTLTCRSSTGAVTTSNYANWVQQKPGQAPRGLIGGTNKRAPGTPARFSGSLLGGKAALTLSGVQPEDEAEYYCALWYSNLWVFGGGTKLTVLGQPKAAPSVTLFPPSSEELQANKATLVCLISDFYPGAVTVAWKADSSPVKAGVETTTPSKQSNNKYAASSYLSLTPEQWKSHRSYSCQVTHEGSTVEKTVAPTECSGGGGSGGGGSGGGGSGGGGSEVQLVESGGGLVQPGGSLRLSCTASGYTNRLKCMGWFRQAPGKEREEIATISTGTGNTYYADSVKGRFTFSRDNSKNTLYLQMNSLRAEDTAVYYCAADVRPDGTTCHYNSGGQGTQVTVSS
notes: Format Ac13
With B6, the MFI in experiment [2] was found to be 1360.

B7: FUSE-570 (h5A1-FA18 Fc) (Fc fusion)
chain: QVQLVESGGGLVQPGGSLRLSCSASGYTNRLKCMGWFRQAPGKEREEIATISSGTGNTYYADSVKGRFTFSRDNSKNTLYLQMNSLRAEDTGMYYCAADVRPDGTTCHYNSGGQGTQVTVSS
notes: as for B1
Regarding B7, the MFI in experiment [4] was 583.

B8: FUSE-563 (h5A1-FA11 Fc) (Fc fusion)
chain: EVQLLESGGGLVQPGGSLKLSCTASGYTNRLKCMGWFRQAPGKEREEIATISTGTGNTYYADSVKGRFTISQDRSKNTLYLQMNSLRAEDTAVYYCAADVRPDGTTCHYNSWGQGTLVTVSS
notes: as for B1
In the case of B8, in experiment [4], the MFI amounted to 388.
